Among the data in patent US20240401063, “Aptamer for DKK1 and Use Thereof” (APTACURE THERAPEUTICS LIMITED, published 2024) are binding result, Kd and IC50 values, retold here.

For data set [1], the target named is T1, DKK1 (Dickkopf-1), full-length (Homo sapiens, UniProt O94907 SEQ:32-266).
T1 sequence: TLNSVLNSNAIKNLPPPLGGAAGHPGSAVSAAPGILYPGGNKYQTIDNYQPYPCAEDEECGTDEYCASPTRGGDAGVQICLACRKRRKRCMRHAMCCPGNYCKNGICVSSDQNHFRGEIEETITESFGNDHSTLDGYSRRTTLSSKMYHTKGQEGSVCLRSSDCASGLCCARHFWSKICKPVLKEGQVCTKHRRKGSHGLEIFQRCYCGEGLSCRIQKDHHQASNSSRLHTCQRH
Briefly: ELONA; not significantly above blank at 1 uM; used as negative control. The conditions noted are these: tags: His6; label: biotin. How it is done:
(§1) Enzyme linked oligonucleotide assay (ELONA): 160 ng DKK1 per well and negative target were coated in a 96-well microtiter plate by incubating at 4° C. overnight through hydrophobic interaction. Non-binding sites in wells were blocked with bull serum albumin (BSA) at room temperature for 1 hour, and then washed with DNA-binding buffer 4 times for 5 minutes each. The biotinylated aptamer candidates/RS with an appropriate concentration were added to each well and incubated at room temperature for 45 minutes with continuous gentle shaking. After binding, the plate was washed with washing buffer 4 times for 5 minutes each to remove non-specific and weakly binding sequences. 100 μl streptavidin-horseradish peroxidase (HRP) (1:10000 dilute into PBST+0.1% BSA) was added to each well, and incubated for 30 minutes, and washed for 4 times with the binding buffer. 50 μl 3,3′,5,5′-tetramethylbenzidine (TMB) as a HRP substrate was added to each well and incubated for 20 minutes. […] The absorbance at 450 nm was measured with a microplate reader (Molecular Device i3x). Data was analyzed with Origin software. A binding curve was generated and KD was calculated with a non-linear curve fitting model logistic.
The specificity of 1 μM of each adapter/RS against DKK-1 was determined for 20 potential sequences with the highest occurrence rate (Table 4) by ELONA and the absorbance at 450 nm was detected.

Data set [2] has as its target T1, DKK1 (Dickkopf-1), full-length. Briefly: ELONA; room temperature. The note with it: tags: His6; label: biotin; G-rich, predicted G4. How it is done:
(§2) Enzyme linked oligonucleotide assay (ELONA): 160 ng DKK1 per well and negative target were coated in a 96-well microtiter plate by incubating at 4° C. overnight through hydrophobic interaction. Non-binding sites in wells were blocked with bull serum albumin (BSA) at room temperature for 1 hour, and then washed with DNA-binding buffer 4 times for 5 minutes each. The biotinylated aptamer candidates/RS with an appropriate concentration were added to each well and incubated at room temperature for 45 minutes with continuous gentle shaking. After binding, the plate was washed with washing buffer 4 times for 5 minutes each to remove non-specific and weakly binding sequences. 100 μl streptavidin-horseradish peroxidase (HRP) (1:10000 dilute into PBST+0.1% BSA) was added to each well, and incubated for 30 minutes, and washed for 4 times with the binding buffer. 50 μl 3,3′,5,5′-tetramethylbenzidine (TMB) as a HRP substrate was added to each well and incubated for 20 minutes. 50 μl 2M H₂SO₄ was added to terminate the reaction. The absorbance at 450 nm was measured with a microplate reader (Molecular Device i3x). Data was analyzed with Origin software. A binding curve was generated and KD was calculated with a non-linear curve fitting model logistic.
Aptamer candidates with significant specificity and Candidate 3 as a negative control were used to determine the binding affinity against DKK1. Candidates 1, 2, 4, and 14 had concentrations of (0, 62.5 nM, 125 nM, 250 nM, 500 nM, 1000 nM, 2000 nM, and 4000 nM), Candidates 7, 10, 15, and 16 had concentrations of (0, 23.44 nM, 46.86 nM, 93.75 nM, 187.5 nM, 375 nM, 750 nM, and 1500 nM), and other candidates had concentrations of (0, 0.18 nM, 0.74 nM, 2.96 nM, 11.84 nM, 47.35 nM, 189.39 nM, and 757.58 nM). […] Six candidates (aptdkk-5, 13, 20, 19, 6, and 1) were rich in G. The other five sequences (aptdkk-9, 18, 12, 17, and 8) were not rich in G.

The target in data set [3] is T2, DKK1 expressed in Wnt reporter cells (UniProt O94907 SEQ:32-266).
T2 sequence: T1 sequence
In words: cell_activity; TOPFlash Wnt3a luciferase in HEK293T. The conditions noted are these: tags: DKK1 construct co-transfected in HEK293T. The procedure: TCF-wnt induced luciferase activity assay: HEK293T cells were co-transfected with corresponding plasmids, including TOPFlash, FOPFlash, Wnt3a, and DKK1 constructs. An equal amount of the carrier was used for each time of transfection. The culture medium was replaced 24 hours after the transfection. The cells were treated with conditional culture medium containing 1 μM corresponding aptamer candidates. In order to determine inhibition effect, the cells are treated with aptamer candidates having gradient concentrations. 24 hours after treatment, the cells were lysed with 100 μl of lysis buffer, and 20 μl was taken for analysis. It was calculated according to the protocol (dual luciferase reporter gene assay, Promega).

The target of data set [4] is T1, DKK1 (Dickkopf-1), full-length. Briefly: ELONA; high affinity; Kd only in FIG. 9. The conditions noted are these: tags: His6; label: biotin. How it is done:
as §2
Aptamer candidates with significant specificity (apt5-1-44, apt5-1-41, apt5-1-38, and apt5-1-35) and the original aptdkk5 as a positive control were used to determine the binding affinity against DKK1. The original aptdkk5 and apt5-1-44 had concentrations of (0.15625 nM, 0.625 nM, 1.25 nM, 2.5 nM, 5 nM, 10 nM, 50 nM, and 100 nM), apt5-1-41, apt5-1-38, and apt5-1-35 had concentrations of (0, 1.5625 nM, 3.125 nM, 6.25 nM, 12.5 nM, 25 nM, and 50 nM).

Data set [5] shares this target. In words: ELONA; highest affinity of the four truncations; Kd only in FIG. 9. The conditions noted are these: tags: His6; label: biotin. The procedure: as §2, with “logistic. […]” for “logistic.”
For data set [6] the target is unchanged. In words: ELONA; 100 nM and 1 nM: no or slight difference from aptdkk5. The conditions noted are these: tags: His6; label: biotin. The procedure: as §1, with “sequences.” for “sequences. 100 μl streptavidin-horseradish peroxidase (HRP) (1:10000 dilute into PBST+0.1% BSA) was added to each well, and incubated for 30 minutes, and washed for 4 times with the binding buffer. 50 μl 3,3′,5,5′-tetramethylbenzidine (TMB) as a HRP substrate was added to each well and incubated for 20 minutes.”
The specificity of 100 nM/i nM of each aptamer/RS against DKK-1 was determined for 24 truncated sequences of aptdkk5 and original aptdkk5 (Table 6) by ELONA and the absorbance at 450 nm was detected. When the concentration was 100 nM, there was no significant difference or slight difference in the absorbance between apt5-1-38, apt5-1-35, apt5-1-62, or apt5-1-59 and the original aptdkk5 (FIG. 8a). […]

Data set [7] has the same target. In words: ELONA; 1 nM: no or slight difference from aptdkk5. The conditions noted are these: tags: His6; label: biotin. How it is done: as §2
The specificity of 100 nM/i nM of each aptamer/RS against DKK-1 was determined for 24 truncated sequences of aptdkk5 and original aptdkk5 (Table 6) by ELONA and the absorbance at 450 nm was detected. When the concentration was 100 nM, there was no significant difference or slight difference in the absorbance between apt5-1-38, apt5-1-35, apt5-1-62, or apt5-1-59 and the original aptdkk5 (FIG. 8a). When the concentration was 1 nM, there was no significant difference or slight difference in the absorbance between apt5-1-50, apt5-1-47, apt5-1-44, apt5-1-41, apt5-1-38, apt5-1-35, apt5-1-65, apt5-1-62, apt5-1-59, or apt5-1-53 and the original aptdkk5 (FIG. 8b). After the specificity and length of these aptamers were considered, apt5-1-44, apt5-1-41, apt5-1-38, and apt5-1-35 were selected to determine the binding affinity against DKK1.

Setting [8] is: label: biotin, G-rich, predicted G4.

B1: Aptdkk-3 (ssDNA)
DNA: CGTACGGTCGACGCTAGCTAACTGTCCGACGCGTCTTTCACTTTCTCCCGCCGGGATCCGAGCTCCACGTG
Consider B1, for which the binding result in data set [1] was “no binding”.

B2: Aptdkk-5 (ssDNA)
DNA: CGTACGGTCGACGCTAGCTGGTGGTTGGGGTGGGTGGTGGTTGTTCGTGGCCGGGATCCGAGCTCCACGTG
What is called Kd is the constant that tells how readily two partners part at equilibrium. The term IC50 denotes the point on the concentration scale where inhibition reaches its midpoint. In the case of B2, in data set [2], the Kd was 0.3 nM. Further, the IC50 in data set [3] (setting [8]) is 754 nM. With CGTACGGTCGACGCTAGCTGGTGGTTGGGGTGGGTGGTGGTTGT (ssDNA) [Apt5-1-44], the binding result in data set [4] was “binds”. Consider CGTACGGTCGACGCTAGCTGGTGGTTGGGGTGGGT (ssDNA) [Apt5-1-35], for which the binding result in data set [4] was “binds”.

B3: Aptdkk-20 (ssDNA)
DNA: CGTACGGTCGACGCTAGCCGTAGGGAGGTGGGTGGGTATTTCTCTCTGTCGTGGGATCCGAGCTCCACGTG
In the case of B3, in data set [2], the Kd was 6.6 nM. Further, the IC50 in data set [3] (setting [8]) was 1500 nM. Take CGTACGGTCGACGCTAGCTGGTGGTTGGGGTGGGTGGT (ssDNA) [Apt5-1-38 (Aptdkk5s)]: the binding result in data set [5] was “binds”. In turn, CGTACGGTCGACGCTAGCTGGTGGTTGGGGTGGGTGGT (ssDNA, O-methyl (positions not stated); 3' inverted dT) [dkk5s-OM-indT] registered an IC50 in data set [3] of 383 nM.

B4: Apt5-1-62 (ssDNA)
DNA: CGTACGGTCGACGCTAGCTGGTGGTTGGGGTGGGTGGTGGTTGTTCGTGGCCGCGTACGGTC
With B4, the binding result in data set [6] is reported as “binds”.

As for CGTACGGTCGACGCTAGCTGGTGGTTGGGGTGGGTGGTGGT (ssDNA) [Apt5-1-41], the binding result in data set [4] is reported as “binds”. In the case of CGTACGGTCGACGCTAGCTGGTGGTTGGGGTGGGTGGTGGTTGTTCG (ssDNA) [Apt5-1-47], in data set [7], the binding result is listed as “binds”. For the molecule CGTACGGTCGACGCTAGCTGGTGGTTGGGGTGGGTGGTGGTTGTTCGTGG (ssDNA) [Apt5-1-50], the binding result in data set [7] is “binds”.

B5: Apt5-1-59 (ssDNA)
DNA: CGTACGGTCGACGCTAGCTGGTGGTTGGGGTGGGTGGTGGTTGTTCGTGGCCGCGTACG
With B5, in data set [6], the binding result is “binds”.

B6: Apt5-1-65 (ssDNA)
DNA: CGTACGGTCGACGCTAGCTGGTGGTTGGGGTGGGTGGTGGTTGTTCGTGGCCGCGTACGGTCGAC
Consider B6, for which the binding result in data set [7] is recorded as “binds”.

B7: Apt5-1-53 (ssDNA)
DNA: CGTACGGTCGACGCTAGCTGGTGGTTGGGGTGGGTGGTGGTTGTTCGTGGCCG
In the case of B7, the binding result in data set [7] is given as “binds”.
